Here are results for 17 sequences from the supplement of paper PMC9170038.

The data set concerns MS2 coat protein. The data set can be described thus: apparent KD of MS2 coat protein; higher = weaker reporter binding. Particulars: Eterna round: R107. On the procedure:
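RNA-MaP round R107: designed RNA switches with theophylline, tryptophan, arginine or FMN aptamers are transcribed on-chip within common flanks. They are titrated with SNAP-549-labelled MS2 coat protein in RNA-MaP buffer (100 mM Tris pH 7.5, 80 mM KCl, 4 mM MgCl2), without ligand or with the indicated ligand. Median apparent KD per design.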

The mark [1] stands for this setting: input ligand: theophylline 20 uM.
The mark [2] stands for this setting: input ligand: tryptophan 2.4 mM.
Where [3] appears, read: input ligand: theophylline 2 mM.

On to “ACACAUGAGGAUCACCCAUGUUCAAUAGAUACCAGUGAUACGGUGCACCCUUGGCAGCUGUUGCUGAGUGAUGGUUCCCUCGGUA [#23 SameState-TheophyllineA]”, for which the “apparent KD of MS2 coat protein” value by setting is: (input ligand: arginine 13.2 mM) 28.1 nM; under setting [1], 53.9 nM; under setting [2], 41 nM.

As for “ACAUAUUGGUGGUACCAACGAAGGCGGAAACGAGGACCGGUACGGCCGCCACUCGGCGACAUGAGGAUCACCCAUGUGGUUAAAA [Exclusion - Tryptophan A (Freestyle 2)]”, the “apparent KD of MS2 coat protein” value is, setting by setting: (input ligand: none) 149 nM; under setting [1], 153 nM; under setting [3], 851 nM; under setting [2], 972 nM.

Regarding “ACAUGAGGAUCACCCAUGUAACCUAGGGAAGGAGCGGUGUAAGAGCCAGGUAGGUCGCCCACAUGUGGAUCACCCAUGGUGAGGG [#24 Same State - Arginine A]”, the “apparent KD of MS2 coat protein” value was 22.7 nM (input ligand: arginine 13.2 mM); 29 nM (input ligand: none); 44.4 nM under setting [1]; 39.2 nM under setting [3]; 26.6 nM under setting [2].

Turning to “ACAUGAGGAUCACCCAUGUAAUCCUCUGAAGGAGCGAGAAAUAACUCAGGUAGGUCGCAGUUCAAAACAUGAGGAUCACCCAUGU [Exclusion Arginine A GF 9]”, the “apparent KD of MS2 coat protein” value reads like this: (input ligand: arginine 13.2 mM) 28.9 nM; (input ligand: none) 43.3 nM; under setting [1], 52.6 nM; under setting [3], 46.2 nM; under setting [2], 51.1 nM.

Regarding “ACAUGAGGAUCACCCAUGUACAUGAGGGAAGGAGCGGUACAUGUGCCAGGUAGGUCGCCCAUGAGCAUCAGCCAUGUACAUCAGC [l,ommullin]”, the “apparent KD of MS2 coat protein” value (input ligand: arginine 13.2 mM) came out at 42.1 nM; the “apparent KD of MS2 coat protein” value (input ligand: none) worked out at 82.7 nM; the “apparent KD of MS2 coat protein” value under setting [1] is 102 nM; the “apparent KD of MS2 coat protein” value under setting [3] was found to be 75.3 nM; the “apparent KD of MS2 coat protein” value under setting [2] worked out at 75 nM.

“ACAUGAGGAUCACCCAUGUACGAGUCGGAAGGAGCGGCAAUUAAGCCAGGUAGGUCGCCGGCAGAGAGUGUCAUUGUAAGUAUGA [Same State - Arginine A / A]”: the “apparent KD of MS2 coat protein” value (input ligand: arginine 13.2 mM) came to 14.2 nM; the “apparent KD of MS2 coat protein” value (input ligand: none) was 14.8 nM; the “apparent KD of MS2 coat protein” value under setting [1] amounted to 26.8 nM; the “apparent KD of MS2 coat protein” value under setting [3] was 12.3 nM; the “apparent KD of MS2 coat protein” value under setting [2] turned out to be 14 nM.

On to “ACAUGAGGAUCACCCAUGUGCCGUCUUGAUACCAGACGCGAAGUAGUCCCUUGGCAGCAAAUACGUGAGGGUCGCGCAUGUGUAA [wzxmullin]”, for which the “apparent KD of MS2 coat protein” value by setting is: (input ligand: arginine 13.2 mM) 21.8 nM; under setting [1], 27.3 nM; under setting [2], 24.9 nM.

Take “ACAUGAGGAUCACCCAUGUUCCUCGCCGAUACCAGUGAAGAAUUACGCCCUUGGCAGCGGAAAGAGUGUUUUGGAGAUGAGGUAC [6.aA]”: the “apparent KD of MS2 coat protein” value worked out at 80.5 nM (input ligand: arginine 13.2 mM), 112 nM under setting [1] and 100 nM under setting [2].

With “ACAUUAGCCACGGCCGCCACUGCCUUAUGAUUAUAAGGAUUAAUGAACAUGAGGAUCACCCAUGUCAGGACCGGGUGCCUACCAU [SSTryp B #5]”, the “apparent KD of MS2 coat protein” value (input ligand: arginine 13.2 mM) is 20.1 nM, the “apparent KD of MS2 coat protein” value under setting [1] was 32.5 nM and the “apparent KD of MS2 coat protein” value under setting [3] stood at 26.5 nM.

For “ACCUCAUAGGCGGCCGCCACUGUAAUGACUACGUCAAACAUGAGGAUCACCCAUGUAGUCAAUCACAGGACCGGGUCAUGGGUAG [Tryp B SS s2]”, the “apparent KD of MS2 coat protein” value (input ligand: arginine 13.2 mM) worked out at 27.7 nM, the “apparent KD of MS2 coat protein” value under setting [1] was determined as 45.6 nM and the “apparent KD of MS2 coat protein” value under setting [3] amounted to 41.4 nM.

For “ACCUGCGUUUGUUUCUUUCUGACGCAGGUUCGAGGACCGGUACGGCCGCCACUCGGACAUGAGGAUCACCCAUGUUUGACAUGGG [#02 Exclusion Tryptophan A]”, the “apparent KD of MS2 coat protein” value was found to be 229 nM (input ligand: arginine 13.2 mM), 238 nM under setting [1] and 281 nM under setting [3].

Take “ACCUGUACGAAAAGUGCAGGACAGGAAAAUCGAGGACCGGUACGGCCGCCACUCGUAUAAACAAGUGGAUCACCCUUGUAACCUG [TrypAS 1 #AlternativeMS2 #Zipper]”: the “apparent KD of MS2 coat protein” value by setting is: (input ligand: arginine 13.2 mM) 458 nM; (input ligand: none) 664 nM; under setting [1], 1060 nM; under setting [3], 1760 nM; under setting [2], 1610 nM.

As to “ACGAACGAUAGUGAUACCAGACGUACAUGAGGAUCACCCAUGUUUUGGGUAAGGUUAAUAGUCCCUUGGCAGCACUUUAAGUUCG [JR_ExcTheophyB_Sub007]”, the “apparent KD of MS2 coat protein” value is 44.6 nM (input ligand: arginine 13.2 mM), 80.8 nM under setting [1] and 50.9 nM under setting [2].

Take “ACGAACUGUAGUGAUACCAGACACACAUGAGGAUCACCCAUGUUGUUAGCAUGGUGAAUAGUCCCUUGGCAGCACAGUUAGUUCG [#12 Exclusion-TheophyllineB]”: the “apparent KD of MS2 coat protein” value is, setting by setting: (input ligand: arginine 13.2 mM) 71.5 nM; under setting [1], 111 nM; under setting [2], 94.3 nM.

Turning to “ACGAUACGACAUGAGGAUCACCCAUGUGAUACCAGCGUGGAAACACGCCCUUGGCAGCACAAAUACUCCAGAAACGUAUCGAAAA [MAT - Exclusion Theophlline A - Mod of Eli - D7]”, the “apparent KD of MS2 coat protein” value reads like this: (input ligand: arginine 13.2 mM) 93.3 nM; under setting [1], 258 nM; under setting [2], 285 nM.

On to “ACGAUAGGACCUGAGGAUCACCCAGGUGAUACCAGCCUGGAAACAGGCCCUUGGCAGCACCAAUACUCCAAUAACCUAUCGAAUA [TheoAX 11 #MicroSwitchBubble #AlternativeMS2]”, for which the “apparent KD of MS2 coat protein” value amounted to 96.8 nM (input ligand: arginine 13.2 mM); 220 nM (input ligand: none); 442 nM under setting [1]; 372 nM under setting [3]; 213 nM under setting [2].

For “ACGAUAGGACUUGAGGAACACCCAAGUGAUACCAGCCUGGAAACAGGCCCUUGGCAGCACUAAUACUCCAAUAACCUAUCGAAUA [TheoAX 15 #MicroSwitchBubble #AlternativeMS2]”, the “apparent KD of MS2 coat protein” value is, setting by setting: (input ligand: arginine 13.2 mM) 140 nM; (input ligand: none) 212 nM; under setting [1], 172 nM; under setting [3], 66.7 nM; under setting [2], 155 nM.
